This is an account of results in patent US20240409647A1, “BISPECIFIC BINDING PROTEINS AGAINST ALARMINS AND USES THEREOF” (SINOMAB BIOSCIENCE LIMITED, priority 2022, published 2024).

The target in test [1] is T1, IL-17RB (Homo sapiens, UniProt Q9NRM6).
T1 construct: purchased R&D systems
T1 sequence (Q9NRM6 18-502): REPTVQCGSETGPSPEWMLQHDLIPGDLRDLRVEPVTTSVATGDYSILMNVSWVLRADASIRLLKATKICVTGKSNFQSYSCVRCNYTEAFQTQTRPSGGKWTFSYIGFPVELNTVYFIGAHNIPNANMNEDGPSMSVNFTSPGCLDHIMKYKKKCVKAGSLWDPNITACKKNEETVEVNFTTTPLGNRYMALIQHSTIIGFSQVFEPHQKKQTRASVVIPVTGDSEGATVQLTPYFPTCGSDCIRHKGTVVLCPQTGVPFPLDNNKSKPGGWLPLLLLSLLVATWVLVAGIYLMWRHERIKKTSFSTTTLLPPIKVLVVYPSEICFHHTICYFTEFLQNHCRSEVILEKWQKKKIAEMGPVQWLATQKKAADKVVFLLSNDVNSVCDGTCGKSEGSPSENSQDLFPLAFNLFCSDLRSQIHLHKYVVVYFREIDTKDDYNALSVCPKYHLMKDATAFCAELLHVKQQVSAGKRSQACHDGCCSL
The test is described as follows: ELISA, SM17 binding to coated IL-17RB protein (human). The conditions noted are these: two wells. The method, then:
(§1) A standard enzyme-linked immunosorbent assay (ELISA) method was used to determine the species specificity of SM17 against IL-17RB proteins. Briefly, IL-17RB proteins from human, mouse, cynomolgus or rhesus monkey (R&D systems, Minneapolis, MN) were diluted to 2.5 μg/ml in PBS and 50 μl of IL-17RB proteins were added to each well of ELISA strip. The strips were sealed with parafilm and incubated at 4° C. overnight for coating.
(§2) On the next day, strips were washed thrice with washing buffer (0.05% Tween 20 in PBS) and blocked with 100 μl per well with blocking buffer (3% BSA in PBS) for 2 hours RT before serially diluted SM17 (at a final concentration of 10, 2, 0.4, 0.08, 0.016, 0.0032, and 0.00064 μg/ml, respectively) was added.
(In general: ELISA stands for enzyme-linked immunosorbent assay.)

For the next test, the system named is cynomolgus IL17RB. The test can be described thus: ELISA, SM17 binding to coated IL-17RB protein (cynomolgus). The conditions noted are these: two wells. As to the method: as §1, §2
The target in test [2] is T1, IL-17RB. The test can be described thus: ELISA, antigen binding specificity of bsBp (IL-17RB). Also on record: key: −: no binding; +: weak; ++: moderate; +++: strong binding; N/A refers to no binding affinity. Conditions: 33.5 nM; antigen coated at 2 μg/mL. The method, then: Binding specificities of bsBp were evaluated by standard ELISA assays. Briefly, ELISA strips were coated with the respective target antigens, including IL17RB, IL-33, or TSLP (R&D systems) at a final concentration of 2 μg/mL. Bispecific antibodies were added at 33.5 nM to ELISA strips coated with the desired antigen. After incubation under room temperature for 2 hours, ELISA strips were washed five times with PBS. […] No result is provided for SM17-human TSLPR as the yield was too low to be detected.

A further test concerns the target T2, hIL17RE (Homo sapiens, UniProt Q8NFR9).
T2 construct: purchased R&D systems
T2 sequence (Q8NFR9 24-667): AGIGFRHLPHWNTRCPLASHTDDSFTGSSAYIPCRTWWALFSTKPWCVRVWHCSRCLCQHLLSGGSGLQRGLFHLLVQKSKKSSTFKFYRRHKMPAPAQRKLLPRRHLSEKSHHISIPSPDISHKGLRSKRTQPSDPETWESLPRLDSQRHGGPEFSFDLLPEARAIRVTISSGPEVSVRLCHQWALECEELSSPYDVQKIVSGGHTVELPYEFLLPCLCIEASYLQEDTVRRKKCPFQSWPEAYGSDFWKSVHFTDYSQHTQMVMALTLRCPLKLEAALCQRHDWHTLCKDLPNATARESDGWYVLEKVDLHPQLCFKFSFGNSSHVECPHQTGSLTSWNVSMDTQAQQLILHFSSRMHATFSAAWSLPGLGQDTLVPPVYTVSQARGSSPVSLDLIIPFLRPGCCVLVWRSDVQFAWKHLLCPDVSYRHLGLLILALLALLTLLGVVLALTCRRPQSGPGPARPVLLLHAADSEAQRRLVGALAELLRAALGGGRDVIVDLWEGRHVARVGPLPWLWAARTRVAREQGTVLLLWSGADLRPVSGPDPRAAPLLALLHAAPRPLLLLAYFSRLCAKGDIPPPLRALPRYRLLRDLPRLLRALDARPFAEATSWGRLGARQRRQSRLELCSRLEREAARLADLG
The test is described as follows: ELISA, SM17 specificity against IL-17 receptor subunits (IL17RE). The format is binding. The conditions noted are these: 0.4 to 0.00064 μg/mL. As to the method: (§3) A standard ELISA method was used to determine the specificity of SM17 against other human IL17 receptor subunits. Similarly, serially diluted SM17 at different concentrations (final concentrations at 0.4, 0.08, 0.016, 0.0032 and 0.00064 μg/m, respectively) was added to the wells of ELISA plates coated either with human IL-17 receptor subunits A, C, D and E (IL17RA, IL17RC, IL17RD, and IL17RE) (R&D systems).

The target of the next test is T3, hIL17RC (Homo sapiens, UniProt Q8NAC3).
T3 construct: purchased R&D systems
T3 sequence (Q8NAC3 21-791): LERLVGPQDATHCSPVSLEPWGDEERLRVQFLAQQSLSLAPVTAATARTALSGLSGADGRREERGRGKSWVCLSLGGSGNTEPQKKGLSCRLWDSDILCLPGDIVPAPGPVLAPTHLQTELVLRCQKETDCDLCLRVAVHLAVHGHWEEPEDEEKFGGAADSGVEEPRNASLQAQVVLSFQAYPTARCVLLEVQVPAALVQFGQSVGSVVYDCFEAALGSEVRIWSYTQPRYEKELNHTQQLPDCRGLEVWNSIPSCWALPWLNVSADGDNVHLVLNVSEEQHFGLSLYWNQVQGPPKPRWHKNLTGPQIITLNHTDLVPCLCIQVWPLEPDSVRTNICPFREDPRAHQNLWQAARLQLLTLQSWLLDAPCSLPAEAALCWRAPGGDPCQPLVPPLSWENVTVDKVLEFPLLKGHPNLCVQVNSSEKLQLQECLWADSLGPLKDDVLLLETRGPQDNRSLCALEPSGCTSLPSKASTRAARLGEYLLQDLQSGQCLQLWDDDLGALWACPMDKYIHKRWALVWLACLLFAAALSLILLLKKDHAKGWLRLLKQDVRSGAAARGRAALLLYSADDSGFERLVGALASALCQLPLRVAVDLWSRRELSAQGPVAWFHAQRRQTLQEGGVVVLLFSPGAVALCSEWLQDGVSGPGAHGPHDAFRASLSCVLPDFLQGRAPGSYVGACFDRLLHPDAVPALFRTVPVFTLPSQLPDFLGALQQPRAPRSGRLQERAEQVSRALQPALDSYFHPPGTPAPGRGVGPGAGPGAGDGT
The test can be described thus: ELISA, SM17 specificity against IL-17 receptor subunits (IL17RC). Format: binding. The conditions noted are these: 0.4 to 0.00064 μg/mL. The method, then: as §3

“And” between values parts separate entries of the source, which are not always exact repeats. Equal values may be shown once.

For “SM17: humanized anti-IL17RB monoclonal antibody, human IgG4 isotype; HC SEQ ID NO: 32, LC SEQ ID NO: 33”, the “OD 450 nm Absorption, human IL17RB” value with IL-17RB [1] (SM17 0.016 μg/mL) was 0.17; with IL-17RB [1] (SM17 0.08 μg/mL), 0.58 and 0.44; in the test with IL-17RB [1] (SM17 0.4 μg/mL), 1.10 and 1.14; with IL-17RB [1] (SM17 2 μg/mL) it was 1.74 and 1.61; with IL-17RB [1] (SM17 10 μg/mL) it was 1.82 and 1.88. Moreover, the “OD 450 nm Absorption, cynomolgus IL17RB” value was 0.34 in the test with cynomolgus IL17RB (SM17 0.016 μg/mL); 0.72 and 0.74 with cynomolgus IL17RB (SM17 0.08 μg/mL); 0.89 and 0.97 in the test with cynomolgus IL17RB (SM17 0.4 μg/mL); 1.13 and 1.12 in the test on cynomolgus IL17RB (SM17 2 μg/mL); 1.33 and 1.37 with cynomolgus IL17RB (SM17 10 μg/mL). In addition, in the test with IL-17RB [2], the “Intensity of specific antigen binding, IL-17RB coated on ELISA strips” value is on record as “+++”. The “binding of SM17 to IL17RE (in words)” value with hIL17RE is “No obvious bindings”. For the same substance, in the test with hIL17RC, the “binding of SM17 to IL17RC (in words)” value is recorded as “No obvious bindings”.
